In the RNAGym collection of RNA variant scans (doi:10.1073/pnas.2313332121):

B1: TPR t1 (parent)
chain: GACCAAUCUGCCCUCAGAGCUCGAGAACAUCUUCGGAUGCAGAGGAGGCAGGCUUCGGUGGCGCGAUAGCGCCAACGUCCUCAACCUCCAAUGCAUCCCACCACAUGAUGAUGCCUGAAGAGCCUUGGUUUUUUG

Variants of: B1
Assay: polymerase ribozyme fitness, log enrichment relative to wild type (log ratio); higher = more active; in vitro selection for triplet polymerase activity
Method in brief: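 Mutant libraries of each subunit of a heterodimeric triplet polymerase ribozyme were built by PCR and transcribed. Each library went through one round of in vitro selection in triplicate: annealing with biotinylated primer, partner subunit and triplets, frozen incubation at −7 °C, gel excision of extended constructs, streptavidin-bead capture and RT-PCR. Input and output libraries were Illumina-sequenced; only genotypes with ≥10 input reads and ≥1 read per output were kept. Fitness is log2(genotype enrichment/wild-type enrichment), using inverse-variance-weighted replicate averages.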

| Variant | polymerase ribozyme fitness (log ratio) |
| --- | --- |
| GACCAAUGUGCCCGCAGAGCUCGAGAACAUCUUCCGAUGCAGAGGAGGCAGGCUUCGGUGGCGUGAUAGCGCCAACGUCCUCAACCUCCAAUGUAUCCCACCACAUGAUGAUGCCUGAAGAGCGUUGGUUUUUUG | -3.33 |
| GACCAAUUUGCCCUCAGCGCUCGAGAACAUCUUCGGAUGCAGAGGAGCCAGGCUUCGGUGGCGCGAUAGCGCCAACGUCCUCAACCUCCAAUGCGUCCCACCACAUGAUGAUGCCUGAAGAGCCUUGGUUUUUUG | -2.07 |
| GACCAAUUUGCCCUCUGAGCUCGAGAACAUCUUCGGAUGCAGAGGAAGCAGGCUUAGGUGGCGCGAUAGCGCCAACGUCCUCAACCUCCAAUGCAUCCCAACACAUGAUGAUGCCUGAAGAGCUUUGGUUUUUUG | -1.44 |
| GACCAAUGUGCCCUCAGAGCACGAGAACAUCUUCGGAUGCAGAGGAGGCAGGCUUCCGUGGCGCGAUAGCGCCAACGUCCUCAACCUCCAAUGCAUCCCACCACAUGGUGAUGCCUGAAGAGCCUUGGUUUUCUG | -5.29 |
| GACCAAUGUGCCCUCAGAGCUCGAGAACAUCUUCGGAUGCAGAGGAGGCAGGCGUCGGUGGCGCGAUAGCGCCAACGUCCUCAACCUCCAAUGCAUCCCACCACAUGAUGAUGCAUGAAGAGCCUUGGUUUUUUG | 2.13 |
| GACCAAUGGUCCCUCAGAGCUCGAGAACAUCUUCGGAUGCAGAGGAGGCAGGCUUCGGUGGCGCGAUAGCGCCAACGUCCUCAACCUCCAAUGCAUCCCACCACAUGAUGAUGCCUGAAGAGCCUUGGUUUUUUG | -0.244 |
| GACCAAUGUGCCCUCAGAGCUCGAGAACAACUUCGGAUGCAGAGGAGGCAGGCUUCGGUGGCGCGAUAGCGCCAACGUCCUCAACCUCCAAUGCAUCCCACCACAUGAUGAUGCCUGAAGAGCCUUGGUUUUUUG | -5.66 |
| GACCAAUGUGCCCUCAGAGCUCGAGAACAUCUUCGGAUGCAGAGGAGGCAGGCUGCGGUGGCGCGAUAGCGCCAACGUCCUCAACCUACAAUGCAUCCCACCACAUGAUGAUGCCUGAAGUGCCUUGUUUUUUUG | 0.0321 |
| GACCAAUGUGCCCACAGAGCUCGAGAACAUCUUCGGAUGCAGAGGAGGCAGGCUUCGGUGGCGCGAUAGCGCCAACGUCCUCAACCUCCAAUGCAUCCCACCACAUGAUGAUGCCUGAAGAGCCUUGGUUUUUUG | 0.372 |
| GACCAAUGUGCCCUCAGAGCUCGAGAACAUCUUCGGAUGCAGAGGAGGCAGGCUUCGGUGGCGCGAUAGCGCCAACGUCCUCAACCUCCAAUGCAUCCCACCACAUGAAGAUGCCUGAAGAGCCUUGGUUUUUUG | -4.06 |
| GACCAAUGUGCCCUCAGAGCUCGAGAACAUCUUCGGAUGCAGAGGAGGCAGGCUGCGGUGCCGCGAUAGCGCCAACGUCCUCAACCUCCAAUGCAUCCCACCACAUGAUGAUGCCUGAAGAGCCUUGGUUUUUUG | -0.439 |
| GACCAAUGUGCCCUCAGAGCUCGAGAACAUCUUCGGAUGCAGAGGAGGCAGGCUUCGGUGGCGCGAUAGCGCCAACGUCCUCAACCACCAAUGCAUCCCAACACCUGAUGAUGCCUGAAGAGCCUUGGUUUUUUG | -3.4 |
| GACCAAUUUGCCCUCAGCGCUCGAGAACAUCUUCGGAUGCUGAGGAGGCGGGCUUCGGUGGCGCGAUAGCGCCAACGUCCUCAACCUCCAAUGCAUCCCAUCACAUGAUGAUGCCUGAAGAGCCUUGGUUUUUUG | -2.01 |
| GACCAAUGUGCCCUCAGAGCUCGAGAACAUCUUCGGAUGCAGAGGAGGCAGGCUUCGGUGGCGCGAUAGCGCCAACGUCCCCAACCUCCAAUGCAUCCCACCACAUGAUGAUGCCUGAAGAGCCUUGGUUUUUUG | 0.586 |
| GACCAAUGUGCCCUCAGAGCUCGAGAACAUCUUCGGAUGCAGAGGAGGCAGGCUUCGGUGGCGCGAUAGCGCCAACGUCCACAACCUCCAAUGCAUCCCACCACAUGAUGAUGCCUGAAGAGCCUUGGUUUUUUG | 0.387 |
| GACCAAUGUGCCCUCAGAGCUCGAGAACAUCUUCGGAAGCAGAGGAGGCAGGCGUCGGUGGAGCGAUAGCGCCAACGUCCUCAACCUCCAAUGCAUCACACCACAUGAUGAUGCCUGAAGAGUCUUGGUUUUUUG | -7.56 |
| GACCAAUGUGCCCACAGAGCUCGAGAACAUCUUCGGAUGCAGAGGAGGCAGGCUUCGGUGGCGCGAUAGCGCCAACGUCCUCAACCUCCAAUGCAUCCCACCACAUUAUGAUGCCUGAAGAGCCUUGGUUUUUUG | -4.05 |
| GACCAAUUUGCCCUCUGAGCUCGAGAACAUCUUCGGAUGCAGAGGAGGCAGGCUUCGGUGGCGCGUUAGCGGCAACUUCCUCAACCUCCAAUGCAUCCCACCACAUGAUGAUGCCUGAAGAGUCUUGGUUUUUUG | -1.74 |
| GACCAAUGUGCCCUCAGAGCUCGAGAACAUCUUCGGAUGCAGAGGAGGCAGGCUUCGGUGGCGCGAUAGCGCCAACGUCCUCAACCUCCAAUGCAUCCCACCACAUGAUGAUGCCUGAAGAGCCUUGGUUUAUUG | 0.53 |
| GACCAAUUUGCCCUCAGUGCUCGAGAACAUCUUCGGCUGCAGAGUAGGCAGGAUUCGGUGGCGCGAUAGCGCCAACGUCCUCAACCUCCAAUGCAUCCCACCACAUGAUGAUACCUGAAGAGCUUUGGUUUUUUG | -2.69 |
| GACCAAUGUGCCCUCAGAGCUCGAGAACAUCUUCGGAUGCAGAGGAGGCAGGCGUCGGUGGCGCGAUAGCGCCAACGUCCUCAACCUCGAAUGCAUCCCACCACAUGAUGAUGCCUGAAGAGCCUUGGUUUUUUG | -1.05 |
